Patent US12077763B2, “RNA-based control of powdery mildew” (Greenlight Biosciences, Inc., priority 2021, dated 2024)

B1: GS3324 (nucleic acid)
sense: CAAACUCGCUCAAUUCUCCGUAUGACUAAUUGUUCUUAUACUUAUCCUGGCGCUUCAAAACCGUCUUUGCACAAUGUGUCUUGUCAACUCUCCCUUUCAUCUCGAACUGCAAUCAUAGGUGGUAAUGGUGCAGGAAAAUCAACGUUAAUAAAACUACUUACUGGCGAGACGGUCCCUACUUCUGGGCGAGUCGAAAAACACCCUAAUUUGCGAAUUGGAUAUAUAAAACAACAUGCACUUGAACAUGUUGAAAUGCAUCUCGAGAAAACCCCAAACCAAUAUCUUCAAUGGCGCUAUGCCAAUGGUGAUGAUCGUGAGGUACAUAUGAAACAGACUCGUAUUUUAUCGGAUGCUGAUAAAGCUCAAAUGGAAAAAUGGAUUGAUAUCGAUGGGAAG
antisense: CUUCCCAUCGAUAUCAAUCCAUUUUUCCAUUUGAGCUUUAUCAGCAUCCGAUAAAAUACGAGUCUGUUUCAUAUGUACCUCACGAUCAUCACCAUUGGCAUAGCGCCAUUGAAGAUAUUGGUUUGGGGUUUUCUCGAGAUGCAUUUCAACAUGUUCAAGUGCAUGUUGUUUUAUAUAUCCAAUUCGCAAAUUAGGGUGUUUUUCGACUCGCCCAGAAGUAGGGACCGUCUCGCCAGUAAGUAGUUUUAUUAACGUUGAUUUUCCUGCACCAUUACCACCUAUGAUUGCAGUUCGAGAUGAAAGGGAGAGUUGACAAGACACAUUGUGCAAAGACGGUUUUGAAGCGCCAGGAUAAGUAUAAGAACAAUUAGUCAUACGGAGAAUUGAGCGAGUUUG
B2: GS3320 (nucleic acid)
sense: UUAUCAUGCUGCCAUGGUUCAUAAGAAAAAAAUUUACUAAGAUUAGUAGGGAUGCAUAGACCUAAUGACACGCCCAUAAAAGUUGUAUGGCUAUCCCAACCAUGUUCAGAAAGUAUCUCGAGACCAUGAAUGCUUCUAGAAAUAAGGCCAAGUACGAAAAAUGCGGUUCCUCUCAUGCUCAUUAUUUCAUGCGAUUCUGCAAUUUUAAUUAUGUUCUGCACGACAUCUGAUUUUUCAAGAAAAGGAGCACCCAAUUCCAUAGAUCCAACGUUACCUACAGCCCAUAGGCAUCCUUUAACCUUAAGAAUAAUCUCUAAAUCAUCAUAAUGCAUUCCAUAUUCACGAAUGGUUGAGGCAAAUUCAUCAAAAUGACCUUUAUCAUGCAAGAGCUU
antisense: AAGCUCUUGCAUGAUAAAGGUCAUUUUGAUGAAUUUGCCUCAACCAUUCGUGAAUAUGGAAUGCAUUAUGAUGAUUUAGAGAUUAUUCUUAAGGUUAAAGGAUGCCUAUGGGCUGUAGGUAACGUUGGAUCUAUGGAAUUGGGUGCUCCUUUUCUUGAAAAAUCAGAUGUCGUGCAGAACAUAAUUAAAAUUGCAGAAUCGCAUGAAAUAAUGAGCAUGAGAGGAACCGCAUUUUUCGUACUUGGCCUUAUUUCUAGAAGCAUUCAUGGUCUCGAGAUACUUUCUGAACAUGGUUGGGAUAGCCAUACAACUUUUAUGGGCGUGUCAUUAGGUCUAUGCAUCCCUACUAAUCUUAGUAAAUUUUUUUCUUAUGAACCAUGGCAGCAUGAUAA
B3: GS3333 (nucleic acid)
sense: AUAAAAGACUAAUAUGAUCUAAUUUAAAUCGAACUGAUUGAAAAACAUUUGAUUUGCAAUGAAAAUUAAUAUAUAAUCAAAUAAAAUCAAAUAUUUCUCACUCUGGUGCCGGCCCGUUGUGGUAGGAAGUGACCCAACUCUUAAAUCAGGUCAGCAACAUUCAUAGGCAUCUCUUCAAUUUGAGUGCUAUAAAACUGCUCAAUUUCACGCAUCAUCCGAACAUCAUCAGCUGUUACAAAGUUGAUCGCAACACCUUUUCGUCCAAAUCGACCACCUCGACCAAUUCUGUGAAUAUAAUUCUCACGAUUAGCAGGCAAGUCGUAAUUAAUAACUAAUGAAACUUGUUGUACAUCAAUACCACGAGCAAGAAGAUCAGUGGCAAUUAAAACACGGGAUGA
antisense: UCAUCCCGUGUUUUAAUUGCCACUGAUCUUCUUGCUCGUGGUAUUGAUGUACAACAAGUUUCAUUAGUUAUUAAUUACGACUUGCCUGCUAAUCGUGAGAAUUAUAUUCACAGAAUUGGUCGAGGUGGUCGAUUUGGACGAAAAGGUGUUGCGAUCAACUUUGUAACAGCUGAUGAUGUUCGGAUGAUGCGUGAAAUUGAGCAGUUUUAUAGCACUCAAAUUGAAGAGAUGCCUAUGAAUGUUGCUGACCUGAUUUAAGAGUUGGGUCACUUCCUACCACAACGGGCCGGCACCAGAGUGAGAAAUAUUUGAUUUUAUUUGAUUAUAUAUUAAUUUUCAUUGCAAAUCAAAUGUUUUUCAAUCAGUUCGAUUUAAAUUAGAUCAUAUUAGUCUUUUAU
B4: GS3319 (nucleic acid)
sense: GUGUUGAGACCUAAGAGCCUAUGAGUGAGUCACAUUACAACAGAAAGCCUCAAGUCUAAAGUCAUAACCUAUUAAAAUUCGAAAGCACAAAAACAUCCAUUAGGAACUGACUAAGUACAAGAGCUACUCCAUAAAAAUCAGUCGCAAUACAUGUUUUUGCAAAGCAGAUCAACCUGGUUAAGACGAGAAAUAACUUAGUAUUCAACGUAGCUAAAUCUCCAGGGUGUUAGUGUAGUAUAUUGACGUUUCCGAAAUAAUUAAAACCAGCAUCUUAGUUUGGUGUUAUUUGAUAUAUAUGAUAAGAUUCGUUUAGGAUUUAUUGGAAUUUAUUUGGCUGGUAUCUAAUGUAGAUUUGAUUGAUACCGUAUUAUCAAAUCAUUUUAU
antisense: AUAAAAUGAUUUGAUAAUACGGUAUCAAUCAAAUCUACAUUAGAUACCAGCCAAAUAAAUUCCAAUAAAUCCUAAACGAAUCUUAUCAUAUAUAUCAAAUAACACCAAACUAAGAUGCUGGUUUUAAUUAUUUCGGAAACGUCAAUAUACUACACUAACACCCUGGAGAUUUAGCUACGUUGAAUACUAAGUUAUUUCUCGUCUUAACCAGGUUGAUCUGCUUUGCAAAAACAUGUAUUGCGACUGAUUUUUAUGGAGUAGCUCUUGUACUUAGUCAGUUCCUAAUGGAUGUUUUUGUGCUUUCGAAUUUUAAUAGGUUAUGACUUUAGACUUGAGGCUUUCUGUUGUAAUGUGACUCACUCAUAGGCUCUUAGGUCUCAACAC
B5: GS3335 (nucleic acid)
sense: UUGAGUACAGAGUAGUAGUAAUCUAUUUACAUGAAUUACAAGCUUGUACGGAUGAAUGUUUGUCAUAAGCCUACUCAUCUUUCAUGGCGAAUUUCCCAGGCGGCUAACUACUCUAAUUUGUGAGAGGCAUGAAAGUAAUGAUAGAUUUUCUCUAUGUAUAAUAAAUAGUACUCGUAUUUUAAUCAUUCAAACCCUAGUGAUAUCUUUUGUACUCUUCUCUUAUCAAAUUACAUCAAGUUCAUUCCGUCAUUUCUCGUUAUAUAUGACAUAUAAAGCAUUCCAUUCGCAUGAUAGAAAAUAAGUAAUAUGUAUAAUGACUCAAAGCCUUCACCCCAUAGCCAAAAAGUUGGGUUUAUAGUGAAACUUGUGACGUAGAGGGGAUUAAUAUCGCAUUUUCU
antisense: AGAAAAUGCGAUAUUAAUCCCCUCUACGUCACAAGUUUCACUAUAAACCCAACUUUUUGGCUAUGGGGUGAAGGCUUUGAGUCAUUAUACAUAUUACUUAUUUUCUAUCAUGCGAAUGGAAUGCUUUAUAUGUCAUAUAUAACGAGAAAUGACGGAAUGAACUUGAUGUAAUUUGAUAAGAGAAGAGUACAAAAGAUAUCACUAGGGUUUGAAUGAUUAAAAUACGAGUACUAUUUAUUAUACAUAGAGAAAAUCUAUCAUUACUUUCAUGCCUCUCACAAAUUAGAGUAGUUAGCCGCCUGGGAAAUUCGCCAUGAAAGAUGAGUAGGCUUAUGACAAACAUUCAUCCGUACAAGCUUGUAAUUCAUGUAAAUAGAUUACUACUACUCUGUACUCAA
B6: ES53: dsRNA trigger SEQ ID NO 114; gene target Hypotethicai effector (nucleic acid)
DNA: ACGATTATCGCCAATTGGGGTGATACTGTTGTAGTACATGTTACTAATTCATTAATGAATAATGGAACGAGCATTCATTTTCATGGACTCCGGCAATTCGAAACAAACCAAATGGATGGTCCAACATCAATAACACAGTGTCCCATAGCTCCCGGTGATAGTTTTACATATAGATGGGTTGCCTCTCAGTACGGAAGTTCATGGTACCATGCTCATTTCGCCGTAC
B7: GS3323 (nucleic acid)
sense: AGGCGUGGACUGUAGCCUCAAUAGCAUACACUGAAUCGAAUGAGUUGUCAGGAAAUGACAUUUGCAUAAAGUCACCCUUAACAAAGCUUAAUUGGUUUGAUAAGCCUUCUUUCUGUGCAUAUCUCGUGGCCCGCUCUAUUUGGUAAUCAUUGUUGUUCAAGCCAGUAAUAUGAGCGCCAGUAAACUUGGCGAUUUCUCUUGCCGGACCACCAACACCACAUCCGACAUCAAGUACUUUGUCUGCCUCAUUAAUGCCUAUCUUAGCGGCAAGAUAAUGUUCAUGUCGCGCAAUCGCUUGGUAAAAUGGUUCACCGUAAGCAAAUCUACAGAAGUGAAAAGAUUGUCCCCAGCCGUAUUCGUAAAGAUCGGUGCCGAGAUUAUAGUACUGUCUUGUCAAA
antisense: UUUGACAAGACAGUACUAUAAUCUCGGCACCGAUCUUUACGAAUACGGCUGGGGACAAUCUUUUCACUUCUGUAGAUUUGCUUACGGUGAACCAUUUUACCAAGCGAUUGCGCGACAUGAACAUUAUCUUGCCGCUAAGAUAGGCAUUAAUGAGGCAGACAAAGUACUUGAUGUCGGAUGUGGUGUUGGUGGUCCGGCAAGAGAAAUCGCCAAGUUUACUGGCGCUCAUAUUACUGGCUUGAACAACAAUGAUUACCAAAUAGAGCGGGCCACGAGAUAUGCACAGAAAGAAGGCUUAUCAAACCAAUUAAGCUUUGUUAAGGGUGACUUUAUGCAAAUGUCAUUUCCUGACAACUCAUUCGAUUCAGUGUAUGCUAUUGAGGCUACAGUCCACGCCU
B8: GS1796: dsRNA trigger SEQ ID NO 211; gene target Putative aldehyde dehydrogenase-like protein C922.07c (nucleic acid)
DNA: TACCCATCCCTGGCTTAAGTATTGATTTATACATTCTAAAAGAGAGTTCGACGCATATTATGATCTACATACGGAAGTTTGGTAGGATGACGAAAACTCCTAACTTTTAAATTGAAAATTCACCAATCTGACAACATATCTATCTTATTATTGTTGCCCTAATCACTGCCTTTAATGAAGGAATAAAAAATTAAAAGATGCCCGTCACTGACTAACGCTTTTTTTTTAATTAGCCAAATTATCAGTTAACTGCAAACCAGCTACAGCGAGACGGTTTAAGCTCCCATATTTACAAAAACTGACTTGATTTGAGTGTAACCAGCTAGACCAGCTTCTCCTAGCTCCCGTCCAATTCCACTCTGTTTTACACCACCAAATGGGACCTTAAAACTTGAATCATTACTTGAATTAATCCATACCATGCCTGATTCAATTTTTCGCGCTACCCGATGAGCCCTCGTAATATCCTTGGTAAATACTGCACTACCAAGGCCATAGGTAGTATCATTTGCTATCTTTAGGGCTTCTTCTTCTGTTTTAAAGCTATTTATGACAACAAAAGGGCCGAAGACTTCTTCACGAAATATTTTCATAGATG

system: E. necator; assay: Leaf disc assay, dry inoculum (settling tower), decrease in disease severity / hyphal growth (Example 2); details: decrease in disease severity (hyphal growth) relative to untreated control; time point 1 (untreated control hyphal growth ≥50%); value ± SE

| Molecule | % decrease =/− SE TP1 [%] |
| --- | --- |
| B1 | 12 ± 7 |
| B2 | 20 ± 8 |
| B3 | 5 ± 6 |
| B4 | 23 ± 8 |
| B5 | 12 ± 6 |
| B6 | 4 ± 1 |
| B7 | 26 ± 7 |

same assay, conditions: decrease in disease severity (hyphal growth) relative to untreated control; time point 2; value ± SE

| Molecule | % decrease =/− SE TP2 [%] |
| --- | --- |
| B1 | 14 ± 7 |
| B2 | 5 ± 8 |
| B4 | 25 ± 7 |
| B8 | 1 ± 8 |
| B7 | 19 ± 7 |
